Laboratory results published in paper doi:10.1101/2024.01.22.576510 (bioRxiv, 2024).

Biological target: human Na+-taurocholate co-transporting polypeptide (NTCP), detergent-purified, tags cleaved (Homo sapiens, UniProt Q14973)
Assay: cryo-EM structure

human Na+-taurocholate co-transporting polypeptide (NTCP), detergent-purified, tags cleaved, sequence (Q14973 whole entry): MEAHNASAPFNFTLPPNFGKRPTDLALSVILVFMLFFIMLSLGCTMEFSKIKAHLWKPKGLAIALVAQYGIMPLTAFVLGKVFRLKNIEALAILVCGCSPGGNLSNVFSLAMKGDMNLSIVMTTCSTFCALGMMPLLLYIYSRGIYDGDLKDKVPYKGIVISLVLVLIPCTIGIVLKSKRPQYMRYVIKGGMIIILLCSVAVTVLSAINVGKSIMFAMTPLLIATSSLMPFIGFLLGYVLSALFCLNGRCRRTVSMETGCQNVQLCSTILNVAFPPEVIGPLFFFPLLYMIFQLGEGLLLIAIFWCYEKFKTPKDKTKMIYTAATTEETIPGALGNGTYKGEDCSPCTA

binding result: binds
B1: Fab3 (Fab, V domains shown)
VH: EVQLVESGGGLVQPGGSLRLSCAASGFNVSSSYIHWVRQAPGKGLEWVASISPYYSYTSYADSVKGRFTISADTSKNTAYLQMNSLRAEDTAVYYCARYQYDYYYSYYAGLDYWGQGTLVTVSS
VL: DIQMTQSPSSLSASVGDRVTITCRASQSVSSAVAWYQQKPGKAPKLLIYSASSLYSGVPSRFSGSRSGTDFTLTISSLQPEDFATYYCQQYRYSLITFGQGTKVEIK
